# Laboratory results as given in patent US20230035403A1, “Method For Determining Responsiveness To Prostate Cancer Treatment” (Janssen Biotech, Inc., priority 2020, published 2023).
# Molecular target: HLA-B*08:01 (human)
# Experiment: UV-induced peptide exchange, HLA class I ELISA; Pos peptide = 100%
# Details: remark: other sources report otherwise
row,Binder,exchange rate with Pos peptide [%]
1,RAKCKFSIL (here or on the partner: biotinylated heavy chain) [P56 9-mer …],38
2,IPVLTRWPL (here or on the partner: biotinylated heavy chain) [P19 9-mer …],14.5
3,RVGNCKHLK (here or on the partner: biotinylated heavy chain) [P82 9-mer …],1.4
4,YLRRQKRLK (here or on the partner: biotinylated heavy chain) [P60 9-mer …],10.2
5,CPMSRLRLA (here or on the partner: biotinylated heavy chain) [P46 9-mer …],14.5
6,LMAQRLLLR (here or on the partner: biotinylated heavy chain) [P97 9-mer …],2.7
7,LLERNSFEV (here or on the partner: biotinylated heavy chain) [P73 9-mer …],2.6
8,IVWWCPMSR (here or on the partner: biotinylated heavy chain) [P98 9-mer …],2.4
9,HVPKILSGK (here or on the partner: biotinylated heavy chain) [P58 9-mer …],5.3
10,FLFLLLPLS (here or on the partner: biotinylated heavy chain) [P87 9-mer …],3.1
11,QLIAMDSAI (here or on the partner: biotinylated heavy chain) [P22 9-mer …],3.9
12,CYLGRQKRF (here or on the partner: biotinylated heavy chain) [P61 9-mer …],3.6
